These results are taken from US5378822, “Nucleic acids encoding murine and human Ah receptors” (Wisconsin Alumni Research).

Data set [1] addresses AhR-ARNT heterodimer (mouse AhR + human ARNT) (Mus musculus / Homo sapiens, UniProt P30561;P27540 P30561:1-805,P27540:1-789). Briefly: EMSA; 20 nM TCDD, 2 h 30 C; poly dIdC; ligand dependent. The note with it: tags: reticulocyte lysate TNT; label: 32P end-label; 5' TCGA overhangs. On the procedure:
(§1) A complementary pair of synthetic oligonucleotides, 5'-[…]-3' Sequence ID. No. 16 and 5'-TCGAGCTGGGC-CCATTGCGTGATCTAC-3' Sequence ID. No. 17 (containing DRE3) were annealed and end-labeled with gamma ^32P-labeled deoxyadenosine triphosphate as described. Sambrook, J., Fritsch, E. F., Maniatis, T., *Molecular Cloning: A Laboratory Manual/second edition* (Cold Spring Harbor Laboratory Press, 1989). Cytosolic extracts (35 μg of protein) obtained from either human SCC cells or murine Hepa 1c1c7 cells (From James P. Whitlock Jr.) were incubated in the presence of DMSO (−) or 20 nM TCDD (+) for 2 hours at either room temperature (human) or 30° (murine). Nonspecific competitor, poly dIdC, was added and incubated 15 minutes at room temperature. The radiolabeled probe was then added and incubated 15 minutes at room temperature followed by nondenaturing gel electrophoresis. In vitro translated human AhR and ARNT proteins were incubated with either DMSO (−) or 20 nM TCDD (+) for 2 hours at room temperature followed by gel shift assays as described above. In vitro translated mouse AhR and humanARNT proteins were incubated with either DMSO (−) or 20 nM TCDD (+) for 2 hours at 30° followed by electrophoretic mobility shift assays.

Data set [2] has as its target ARNT alone (Homo sapiens, UniProt P27540 P27540:1-789). Briefly: EMSA; no binding without AhR. Particulars: label: 32P end-label; 5' TCGA overhangs. On the procedure:
as §1
On the technique in general: In EMSA bound probe runs differently from free probe, usually more slowly.

Data set [3] has as its target T1, AhR (human) alone (Homo sapiens, UniProt P35869 SEQ:1-848).
T1 chain: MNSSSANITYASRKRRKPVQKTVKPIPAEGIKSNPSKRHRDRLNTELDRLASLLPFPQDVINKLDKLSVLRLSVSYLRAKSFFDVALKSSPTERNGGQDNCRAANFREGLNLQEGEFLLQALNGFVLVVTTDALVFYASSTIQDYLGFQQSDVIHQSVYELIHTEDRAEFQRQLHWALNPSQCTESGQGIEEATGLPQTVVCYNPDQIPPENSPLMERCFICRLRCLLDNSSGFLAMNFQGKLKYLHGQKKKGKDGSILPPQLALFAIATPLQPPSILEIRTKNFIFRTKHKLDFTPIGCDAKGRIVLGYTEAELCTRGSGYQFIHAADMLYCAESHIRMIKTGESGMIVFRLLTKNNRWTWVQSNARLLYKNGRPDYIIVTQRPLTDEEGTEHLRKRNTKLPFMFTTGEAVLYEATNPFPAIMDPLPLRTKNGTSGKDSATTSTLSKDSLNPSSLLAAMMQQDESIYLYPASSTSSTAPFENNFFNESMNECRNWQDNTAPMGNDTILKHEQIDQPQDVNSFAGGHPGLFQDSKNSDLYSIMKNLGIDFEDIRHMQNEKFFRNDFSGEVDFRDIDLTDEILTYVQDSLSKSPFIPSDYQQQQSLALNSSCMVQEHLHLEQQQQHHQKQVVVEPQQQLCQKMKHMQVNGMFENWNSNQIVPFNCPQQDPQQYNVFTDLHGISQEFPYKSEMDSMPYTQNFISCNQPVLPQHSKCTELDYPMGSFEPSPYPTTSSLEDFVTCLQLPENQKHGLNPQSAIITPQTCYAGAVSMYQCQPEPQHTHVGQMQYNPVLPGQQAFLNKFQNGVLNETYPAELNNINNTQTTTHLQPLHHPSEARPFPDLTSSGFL
Briefly: EMSA; no binding without ARNT. Particulars: label: 32P end-label; 5' TCGA overhangs. On the procedure:
as §1

Data set [4] addresses AhR-ARNT heterodimer (human AhR + human ARNT) (Homo sapiens, UniProt P35869;P27540 P35869:1-848,P27540:1-789). Briefly: EMSA; 20 nM TCDD, 2 h room temperature; poly dIdC; ligand dependent. Particulars: tags: reticulocyte lysate TNT; label: 32P end-label; 5' TCGA overhangs. On the procedure:
as §1

AhR-ARNT heterodimer (mouse AhR + human ARNT), sequence (P30561 1-805, chain 1 of 2): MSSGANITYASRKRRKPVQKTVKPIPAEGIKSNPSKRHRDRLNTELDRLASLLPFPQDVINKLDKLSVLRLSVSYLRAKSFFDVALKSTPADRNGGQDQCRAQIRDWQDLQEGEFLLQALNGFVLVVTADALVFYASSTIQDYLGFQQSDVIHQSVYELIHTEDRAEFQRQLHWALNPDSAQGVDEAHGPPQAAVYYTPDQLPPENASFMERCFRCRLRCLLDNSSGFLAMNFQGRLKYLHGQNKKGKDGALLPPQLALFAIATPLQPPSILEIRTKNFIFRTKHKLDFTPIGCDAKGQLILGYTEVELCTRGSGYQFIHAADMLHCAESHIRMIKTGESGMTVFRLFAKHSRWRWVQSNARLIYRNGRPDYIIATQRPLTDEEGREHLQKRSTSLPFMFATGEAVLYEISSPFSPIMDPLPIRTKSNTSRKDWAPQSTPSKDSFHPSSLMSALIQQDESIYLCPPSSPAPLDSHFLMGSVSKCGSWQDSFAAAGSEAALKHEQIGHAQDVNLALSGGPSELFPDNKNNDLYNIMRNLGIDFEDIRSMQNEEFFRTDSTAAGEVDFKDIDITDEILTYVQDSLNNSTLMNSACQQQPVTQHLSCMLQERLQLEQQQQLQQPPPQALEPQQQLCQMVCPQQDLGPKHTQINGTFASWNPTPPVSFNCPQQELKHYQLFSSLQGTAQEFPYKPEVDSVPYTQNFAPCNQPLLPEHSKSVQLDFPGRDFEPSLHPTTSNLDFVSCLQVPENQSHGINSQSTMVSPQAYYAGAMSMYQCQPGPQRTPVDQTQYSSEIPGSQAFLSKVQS
AhR-ARNT heterodimer (mouse AhR + human ARNT), sequence (P27540 whole entry, chain 2 of 2): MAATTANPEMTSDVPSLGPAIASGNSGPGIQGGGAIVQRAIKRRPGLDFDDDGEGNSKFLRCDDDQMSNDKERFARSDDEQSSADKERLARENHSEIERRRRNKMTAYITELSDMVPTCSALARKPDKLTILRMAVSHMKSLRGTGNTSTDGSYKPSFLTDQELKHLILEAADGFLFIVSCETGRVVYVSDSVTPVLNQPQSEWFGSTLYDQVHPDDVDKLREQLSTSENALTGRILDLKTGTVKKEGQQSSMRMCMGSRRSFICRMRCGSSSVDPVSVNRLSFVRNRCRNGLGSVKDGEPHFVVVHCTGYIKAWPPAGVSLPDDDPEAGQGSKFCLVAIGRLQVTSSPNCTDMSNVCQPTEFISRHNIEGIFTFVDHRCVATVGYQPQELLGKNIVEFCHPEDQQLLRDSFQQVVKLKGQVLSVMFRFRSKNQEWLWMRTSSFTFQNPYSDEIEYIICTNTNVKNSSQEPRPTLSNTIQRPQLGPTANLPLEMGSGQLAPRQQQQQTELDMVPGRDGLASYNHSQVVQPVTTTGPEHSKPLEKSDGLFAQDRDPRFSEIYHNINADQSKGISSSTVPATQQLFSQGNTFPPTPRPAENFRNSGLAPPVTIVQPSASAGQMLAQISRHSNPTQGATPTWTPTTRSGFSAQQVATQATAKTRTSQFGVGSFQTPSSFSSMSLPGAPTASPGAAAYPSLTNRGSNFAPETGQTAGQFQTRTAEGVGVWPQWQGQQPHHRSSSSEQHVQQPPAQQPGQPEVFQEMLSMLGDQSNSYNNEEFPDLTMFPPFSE
AhR-ARNT heterodimer (human AhR + human ARNT), sequence (P27540 whole entry, one chain of several): as the sequence (P27540 whole entry, chain 2 of 2) above
ARNT alone, sequence (P27540 whole entry, one chain of several): as the sequence (P27540 whole entry, chain 2 of 2) above

B1: DRE3 (dsDNA)
DNA 1: TCGAGTAGATCACGCAATGGGCCCAGC
DNA 2: TCGAGCTGGGCCCATTGCGTGATCTAC
With B1, the binding result in data set [1] is recorded as “binds”; in data set [2], “no binding”; in data set [3], “no binding”; in data set [4] it was “binds”.
